This test concerns the target moAb G12 conjugated to HRP (peroxidase). Nature of the test: competitive ELISA, gliadin-coated plate, G12-HRP; reference OM719. In general terms: In an ELISA, binding on a coated surface is turned into a signal by an enzyme label.

The source of these data is patent US20190191748A1.

Substance “avenins (prolamins) extracted from oat variety OA729” yielded a cross-reactivity (CR) = (IC50 of OM719 / IC50 of the variety) x 100 of 75%.
For “avenins (prolamins) extracted from oat variety OC723” the value was 12%.
The same measure for “avenins (prolamins) extracted from oat variety OE717”: 60%; for “avenins (prolamins) extracted from oat variety OH727”: 25%.
The same measure for “avenins (prolamins) extracted from oat variety OL715”: 24%.
